Measurements taken from PMC10470887.

Target: SpGrx3 R47F mutant (Sphingomonas sp. PAMC 26621)
Assay: SEC; Superdex 200 prep grade XK16 column; 50 mM Tris·HCl, 50 mM NaCl, pH 8.0; molecular weight against a protein standard mix

stoichiometry N: 2
Substance: SpGrx3 R47F mutant (enzyme)
